The values that follow come from patent US20200102398A1 (Amgen, published 2020).

By Kd is commonly meant the free concentration of one partner at which half of the binding sites on the other are occupied at equilibrium, for simple one-to-one binding. Read a low Kd as a tighter complex. A word on the koff: it is a measure of how fast the partners let go of each other. A higher koff goes with fast dissociation. The term kon denotes the rate constant with which the complex forms. Low values mean slow association, high ones fast association.

The labels stand for the following.
B1: sBCMA-mAb1 (antibody, V domains shown)
VH: QSLEESGGDLVKPGAFLTLTCTASGFSFSSGYYICWVRQAPGKGLEWIACIYTGSSGSTDYASWAKGRFTISKTSSTTVTLQMTSLTAADTATYFCARDYGHSYWNLWGPGTLVTVSS
VL: DIVMTQTPASVEAAVGGTVTIKCQASEDISSRLAWYQQKPGQPPKLLIGAASTLASGVSSRFKGSRSGTEYTLTISDLECADAATYYCLGDYYVSSYGNAFGGGTEVVVKG
notes: Rabbit monoclonal IgG, used as purified recombinant antibody; also called rabbit monoclonal anti-sBCMA antibody sBCMA-mAb1; sBCMA-mAbl

One experiment has as its target T1, soluble BCMA (sBCMA) (human, UniProt Q02223 1-54).
T1 construct: also called BCMA ECD; Biotinylated BCMA
T1 sequence: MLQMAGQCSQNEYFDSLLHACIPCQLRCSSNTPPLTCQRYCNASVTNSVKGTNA
Nature of the experiment: SPR (Biacore 3000, 25 C); mAb captured on goat anti-rabbit IgG Fc, sBCMA as analyte; 1:1 Langmuir with mass transfer. The method, then: Experiments were performed using a Biacore 3000 (GE Healthcare) at 25° C. The running buffer was HBS-P (10 mM HEPES, pH7.4, 150 mM NaCl, 0.05% Surfactant P-20)+0.1% BSA, and kinetics were performed at a high flowrate (100 μl/min). 10 mM Glycine, pH 1.7 was used for regeneration.
Surface preparation: A goat anti-rabbit IgG Fc (Prod. #111-005-046 from Jackson Research) was diluted 1/20 in NaAcetate, pH 5 and covalently coupled to the sample and reference Fc (Fc 1) of a CMS sensor chip using amine coupling. Individual mAbs were diluted in HBS-P+0.1% BSA and captured on either Fc 2, 3, or 4 at 0.3 μg/ml for kinetic analysis of binding to sBCMA.
Interaction Parameters: sBCMA (1.19 mg/ml stock) was injected as analyte at 600 nM, 300 nM, 150 nM, 75 nM, 37.5 nM, 18.8 nM, and 9.4 nM with the 75 nM concentrated run twice to gage reproducibility. The association rate was monitored for 2.5 minutes. The dissociation time was 20 minutes to determine more accurate kinetics for those mAbs with slower off-rates. The data was double background referenced in that both a reference Fc and a 0 nM analyte concentration were subtracted from the data. A 1:1 Langmuir binding model with mass transfer was used from the Biacore evaluation software.
For orientation: In SPR one partner is held on a chip, and binding of the other changes the refractive index at the surface.

For the experiment “sBCMA-mAb1”, the target named is B1. Briefly: Octet: sBCMA-mAb3 on captured sBCMA-mAb1 without BCMA (sensor blocked with irrelevant IgG).

In the experiment with soluble BCMA (sBCMA), B1 returned a Kd of 0.103 nM, a koff of 6.47e-05 s⁻¹ and a kon of 630000 M⁻¹ s⁻¹.

B2: sBCMA-mAb3 (antibody, V domains shown)
VH: QEQLEESGGGLVKPGGTLTLTCKASGMDFSSYYYMCWVRQAPGKGLEWIACIFSDSGGHTAYASWAEGRFTISKTSSTTVTLQMTSLTVADTATYFCARDRRDVVYIRDLWGPGTLVTVSS
VL: ALVMTQTPSPVSAAVGGTVTISCQSSESVYNNNALAWYQQKPGQPPKLLIYGASSLASGVPSRFKGSGSGTQFTLTISDLECDDAATYYCAGYKRYNNDGHAFGGGTEVVVKG
notes: Rabbit monoclonal IgG; also called rabbit monoclonal anti-sBCMA-mAb3
In the experiment with soluble BCMA (sBCMA), B2 registered a Kd of 4.5 nM, a koff of 0.00405 s⁻¹ and a kon of 901000 M⁻¹ s⁻¹. In addition, in the experiment with sBCMA-mAb1, the binding result is given as “no binding (tested: not given)”.

B3: sBCMA-mAb2 (antibody, V domains shown)
VH: QSLEESGGDLVKPGASLTLTCTASGFSFSSSYWICWVRQAPGKGLEWIACIYAGSGDFTYYASWAKGRFTVSKTSSTTVTLQMTSLTAADTATYFCARDAATSYYSHYFTLWGPGTLVTVSS
VL: DVVMTQTPASVSEPVGGTVTIKCQASQSIYSGLAWYQQKPGQPPKLLIYDASDLASGVPSRFSGSGYGTEFTLTISGVQCEDAATYYCQVTHYESGVPLGGGTEVVVEG
notes: Rabbit monoclonal IgG; also called rabbit monoclonal anti-sBCMA antibody sBCMA-mAb2
In the experiment with soluble BCMA (sBCMA), B3 showed a Kd of 377 nM, a koff of 0.0185 s⁻¹ and a kon of 49200 M⁻¹ s⁻¹.
